From patent US10900903B2, “Protein structure analysis based on red-edge excitation shift (REES) spectroscopy” (UNIVERSITY OF BATH, priority 2016, dated 2021)

Key:
[1] = REES of NEMO W6 Trp emission: native, denatured, crowded; type: physicochemical; details: for A (REES magnitude, fit to Eq 2) / R (fit to Eq 1), relative: relative to NEMO alone; for A (REES magnitude, fit to Eq 2) / R (fit to Eq 1), relative / R0: native; for A (REES magnitude, fit to Eq 2): denatured (6M guanidine), crowded (Sbi 20 mg/ml); for R (fit to Eq 1), relative / R0: denatured, crowded; for R0: y-intercept of Eq 2 fit
Method: Typically the magnitude of the steady-state REES phenomenon is reported as the simple difference in CSM or ΔλEm^max. From FIG. 1, it is observed that a significant red shift in the emission spectra, with an increase in CSM of 17.7 nm and an increase in ΔλEm^max of 15 nm from λex 292-310 nm. Essentially the data are treated by the linear function: CSM=Rλex+CSM0 Eq 1.
Where R is the REES magnitude expressed as the change in CSM per nm of the excitation wavelength, λex.
The REES data in FIG. 2 can be best represented by a Gaussian probability distribution of the form:
Where A is the area, w is the full width at half-maximal (fwhm), m is the mid-point and R0 is the y-intercept and m=λREES^max, where λREES^max is the excitation wavelength that gives the largest change in the emission peak wavelength. The data in FIG. 2 are fit to Eq 2 and illustrate the low energy excitation at the red edge of the protein absorption spectrum. The fit of Eq 2 to the experimental data is excellent and captures the expected relationship described above.
In this case, the solvent relaxation will be very rapid and no REES effect observed, effectively because there is one discrete solvation state (fully solvated). NEMO is incubated in 6M guanidine to denature the protein and the corresponding change in the center of spectral mass (CSM) versus λex is shown in FIG. 3. The use of CSM is favoured instead of the magnitude of ΔλEm^max as this metric gives a more robust REES signal and the magnitude of may be highly error prone. However the results using ΔλEm^max are essentially the same. A decrease and red-shift in Trp emission is typically grossly correlated with denaturation of proteins. […] Note that this is not the REES effect but reflective of the solvent exposure of NEMO W6 on denaturation. […] Fitting to Eq 2 also gives a large decrease in the REES effect, A=0.37±0.4. The relative change in the REES effect is similar using either approach and this indicates strongly that a fitting approach using Eq 2 is robust.
Macromolecular crowding is a key feature of the intracellular milieu arising from the very high concentrations of other species in the cytosol. Crowding reduces the available solvent for other molecules in solution through the excluded volume effect, which effectively increase the concentration of, for example, protein and restricts the accessible conformational states through hard-core repulsions between the crowding agent and the protein. Macromolecular crowding can alter protein conformation, typically inducing folding and stabilization. Crowding therefore potentially provides a means to explore the contrasting physical effect of denaturation on the REES effect, where the protein is more folded/stabilized. A protein has been used as the crowding agent, Sbi (reported above), instead of a synthetic crowding agent since protein is much more consistent with the intracellular environment. […] Incubating NEMO with a high concentration of Sbi (20 mg/ml) gives a dramatic change to the both the absolute Trp emission and also the REES effect as shown in FIG. 3. […] Intriguingly, the REES effect is much larger in the crowded environment giving a relative increase in A of 2.24±0.51. […] This is consistent with the putative molecular model of NEMO activity that is based on allosterically regulated NEMO conformational change. Below, the potential mechanistic role of an increased number of available conformational states with respect to ligand interactions is described.
Full length human NEMO was expressed and purified essentially as described previously. Purified protein was dialysed extensively into a buffer comprising 50 mM Tris-Cl pH 8.0, 50 mM NaCl and 5 mM DTT. All measurements were made in this buffer unless otherwise stated. IKK-β and IκBα peptides were commercially synthesised by Genscript, having a purity of >98% and are of the sequence […] and […], respectively. […]

[2] = High-pressure REES measurements; type: physicochemical; details: buffered solution, any pressure
Source text: The CSM value is rather larger than reported for the denaturation study above (FIGS. 3A and 3B) and this is due to a different spectral window used to calculate the CSM for the pressure studies. This was necessary due to the optical setup of the pressure cell. […] Fitting the REES data to Eq 4 gives the pressure dependence of A, shown in FIG. 4D as the change in the fraction of A across the pressure range. […] The pressure dependence data can be adequately fit to a simple, phenomenological model that implies a single transition between two states with changing hydrostatic pressure as used previously:
Where Rp=83.13 cm3 mol^−1 bar K^−1 when the pressure, p, is measured in bar, K0 is the equilibrium constant for the change in the relative population of the ith conformational state represented by the magnitude of A from Eq 4, extrapolated to 0 bar and ΔVA is the apparent difference in the volume associated with this equilibrium transition.
The difference in sign is simply attributable to relative change in direction of the specific to signal. What is important is that the magnitude of ΔV is much larger for the REES effect compared to W6 emission. Indeed, this magnitude of pressure dependence is more consistent with global metrics of NEMO conformational change previously measured using the pressure dependence of 8-anilino naphthalene sulfonate (ANS) emission. The REES signal may therefore be reflective of the broader equilibrium of NEMO conformational states at sites distal to W6. […] The key finding from the pressure data in the present context is that the REES effect itself is pressure-dependent with the magnitude of A increasing with pressure.
An ISS high-pressure cell (ISS, Champaign, UL, USA), fitted with a custom fiber optic mounting to the fluorimeter and connected to a circulating water bath for temperature regulation was used to record all high-pressure measurements.
Where fi is the measured fluorescence intensity and λem is the emission wavelength. The importance of using a consistent wavelength range when reporting CSM data is stressed, as the magnitude will be dependent on the wavelength range chosen.

NEMO = target: T1, NEMO (Homo sapiens, UniProt Q9Y6K9); test: REES of NEMO W6 on ligand binding (peptides, poly-ubiquitin); details: for R (fit to Eq 1), relative / A (REES magnitude, fit to Eq 2): relative to NEMO alone, binding partners; for A (REES magnitude, fit to Eq 2): peptides 1 mM, poly-ubiquitin 1 μM
T1 construct: Full length human NEMO was expressed and purified essentially as described previously [23]; made in house
T1 sequence (Q9Y6K9 whole entry): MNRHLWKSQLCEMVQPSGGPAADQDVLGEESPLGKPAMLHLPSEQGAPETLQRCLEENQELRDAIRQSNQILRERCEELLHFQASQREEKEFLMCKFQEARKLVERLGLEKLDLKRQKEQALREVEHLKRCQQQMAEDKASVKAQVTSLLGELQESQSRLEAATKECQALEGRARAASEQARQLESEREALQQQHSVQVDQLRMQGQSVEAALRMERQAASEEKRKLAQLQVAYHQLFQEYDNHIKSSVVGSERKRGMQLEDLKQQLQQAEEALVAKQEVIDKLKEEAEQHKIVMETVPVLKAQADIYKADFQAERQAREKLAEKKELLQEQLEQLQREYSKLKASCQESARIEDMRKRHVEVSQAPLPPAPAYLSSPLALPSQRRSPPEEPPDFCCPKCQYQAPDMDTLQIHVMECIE
Source text: Having established that the REES effect, specifically the use of Eq 2, can be used as a proxy for the protein free energy landscape, how the NEMO REES signal varies upon ligand binding is considered. […] The REES data for NEMO ligand bound states are shown in FIGS. 6A and 6B with the solid lines representing the fit to Eq 2. The resulting extracted values of A from Eq 2 are given in Table 1 and also as an inset bar chart in FIG. 6. For clarity, the relative change in R and A compared to NEMO alone is reported, extracted from Eq 1 and 2, respectively.
The IKKβ peptide (termed the NEMO binding domain, NBD) contains two Trp residues and so is not suitable for the present study as the signal from the peptide would confound the analysis of the single NEMO Trp. […] From Table 1 and FIG. 5A there is a significant difference in the magnitude of A depending on the ligand bound form of NEMO. […] If the ligand binding data shown in FIG. 5A is fitted to the simple linear function described by Eq 1 a different trend is found. […] Instead the major difference to is in the curvature of the data and this is captured by the use of Eq 2.
NEMO comprises a specific domain that non-covalently binds poly-ubiquitin. […] Poly-ubiquitin is found as a range of chain-lengths in the cell and evidence has previously been provided from ANS binding studies that NEMO undergoes different conformational change depending on the chain-length of non-covalently bound poly-ubiquitin [23]. The REES effect on NEMO W6 is explored in the presence of both short (4-mer; Ub4) and long (10-mer; Ub10) poly-ubiquitin chains, as shown in FIG. 6B. From the resulting values of A, given in Table 1, Ub4 binding gives a decrease in A (A=0.77±0.05), but Ub10 gives an increase (A=1.23±0.1). […] The absolute magnitude of the REES difference is small.
Full length human NEMO was expressed and purified essentially as described previously. Purified protein was dialysed extensively into a buffer comprising 50 mM Tris-Cl pH 8.0, 50 mM NaCl and 5 mM DTT. All measurements were made in this buffer unless otherwise stated. IKK-β and IκBα peptides were commercially synthesised by Genscript, having a purity of >98% and are of the sequence […] and […], respectively. The IKK-β peptide was modified such that the two native Trp residues were replaced with Phe residues. M1-linked poly-ubiquitin was purchased from Viva Bioscience. Staphylococcus aureus immune modulator protein fragment Sbi-III-IV K173A was expressed and purified essentially as described previously. Protein concentration used was between 1 and 5 μM. Peptide concentrations were 1 mM and poly-ubiquitin concentrations were 1 μM.
All fluorescence measurements were performed using a Perkin Elmer LS50B Luminescence Spectrometer (Perkin Elmer, Waltham, Mass., USA) connected to a circulating water bath for temperature regulation (±1° C.). Samples were incubated for 5 minutes at the given conditions prior to recording measurements. Measurements were performed at 10° C., unless otherwise stated. Excitation and emission slit widths were 5 nm except for pressure experiments where they were 10 nm. The larger slit width was required due to the optical setup of the pressure cell to ensure a […] signal-to-noise for the W6 emission signal. For NEMO red edge excitation scans, tryptophan emission was monitored from 315 to 550 nm. […] For red edge excitation scans, tyrosine emission was monitored from 294 to 400 nm, with the excitation wavelength set at 274 nm. […]

NEMO + Sbi: NEMO incubated with a high concentration of Sbi (20 mg/ml) as crowding agent
Trp emission intensity compared to NEMO in the absence of Sbi ([1]; Sbi 20 mg/ml): ~1.4 times
A (REES magnitude, fit to Eq 2) [1]: 2.24±0.51
R (fit to Eq 1), relative [1]: 1.07 ± 0.12
R0 [1]: 360.5±0.45 nm

N[C@@H](Cc1c[nH]c2ccccc12)C(=O)O [free Trp, tryptophan, reference compound]
REES effect under pressure (in words) [2]: No REES effect is observed

NEMOdenat: NEMO incubated in 6M guanidine to denature the protein
REES effect (in words) [1]: dramatically reduced REES effect
R (fit to Eq 1), change in CSM per nm of λex ([1]; absolute value): 0.22±0.02
A (REES magnitude, fit to Eq 2) [1]: 0.37 ± 0.4
A (REES magnitude, fit to Eq 2) ([1]; listed as Denatured NEMO): 0.37±0.4
R (fit to Eq 1), relative [1]: 0.21 ± 0.01
R (fit to Eq 1), relative ([1]; listed as Denatured NEMO): 0.23±0.1
R0 [1]: 375.0 ± 0.5 nm
R0 ([1]; listed as Denatured NEMO): 375±0.5 nm
increase in CSM (red shift) ([1]; λex 292-310 nm): 4 nm

NBD-Phe: IKK-β peptide (NEMO binding domain), two Trp replaced with Phe, sequence TALDFSFLQTE
decrease in W6 emission on binding (NEMO): ~50%
R (fit to Eq 1), relative (NEMO): 0.98±0.1
A (REES magnitude, fit to Eq 2) (NEMO): 1.33±0.3

IκBα peptide: peptide mimic of IκBα, sequence DDRHDSGLDSMKD
R (fit to Eq 1), relative (NEMO): 1.35±0.1
A (REES magnitude, fit to Eq 2) (NEMO): 0.85±0.04
